Measured values reported in article PMC3328371.

Target: Dock8 (endogenous) (UniProt Q8C147)
Test: anti-Flag co-IP, Dock8 immunoblot
Conditions: reference: Flag-Mob1B wild type; sites T12,T35

## Flag-Mob1B (previously MOBKL1A) (from UniProt Q7L9L4) Flag-Mob1B[Thr12Ala/Thr35Ala]
  binding against the reference: lost
